{"source": "patent US20250051429A1", "about": "(Hoffmann-La Roche, published 2025)"}
{"target": "T1, human A-beta protein, fibrillar A-beta(1-40) coated for the ELISA (human)", "T1 construct": "also called Aβ1-40 fibers; fibrillar Aβ", "T1 sequence (peptide, as listed by the source)": "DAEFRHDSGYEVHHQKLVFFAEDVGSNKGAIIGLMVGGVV", "assay": "ELISA, antibody on coated fibrillar A-beta(1-40)", "experimental": "Binding of the antibodies to fibrillar Aβ is measured by an ELISA assay. Briefly, AD(1-40) is coated at 7 μg/mL in PBS onto Maxisorb plates for 3 days at 37° C. to produce fibrillar Abeta, and then dried for 3 h at RT. The plate is blocked with 1% CroteinC and 0.1% RSA in PBS (blocking buffer) for 1 h at RT, then washed once with wash buffer. Antibodies or controls are added at concentrations up to 100 nM in blocking buffer and incubated at 4° C. overnight. After 4 wash steps, constructs are detected by addition of anti-human-IgG-HRP (Jackson Immunoresearch) at 1:10,000 dilution in blocking buffer […], followed by 6 washes and incubation in TMB (Sigma). Absorbance is read out at 450 nm after stopping color development with 1 N HCl.", "units": {"EC50": "nM"}}
{"binder": "gantenerumab (antibody, human IgG1, V domains shown, glycosylation site in heavy chain CDR2 (NAS); Fab glycosylation (CE-SDS) 30-80 %, kappa light chain; also called parent antibody gantenerumab; wt: NAS) VH: QVELVESGGGLVQPGGSLRLSCAASGFTFSSYAMSWVRQAPGKGLEWVSAINASGTRTYYADSVKGRFTISRDNSKNTLYLQMNSLRAEDTAVYYCARGKGNTHKPYGYVRYFDVWGQGTLVTVSS VL: DIVLTQSPATLSLSPGERATLSCRASQSVSSSYLAWYQQKPGQAPRLLIYGASSRATGVPARFSGSGSGTDFTLTISSLEPEDFATYYCLQIYNMPITFGQGTKVEIK", "EC50": 0.2}
{"binder": "mAb 675 (antibody, V domains shown, glycosylation site in heavy chain CDR2 (NAT); Fab glycosylation (CE-SDS) 100 %, Variant of gantenerumab: heavy chain S53T (Kabat) and shortened heavy chain CDR3, wild-type light chain; Only variable domains are tied to the name; also called 142; gantenerumab VH NAT variant with wild-type light chain) VH: QVELVESGGGLVQPGGSLRLSCAASGFTFSSYAMSWVRQAPGKGLEWVSAINATGTRTYYADSVKGRFTISRDNSKNTLYLQMNSLRAEDTAVYYCARGKGSSGYVRYFDVWGQGTLVTVSS VL: DIVLTQSPATLSLSPGERATLSCRASQSVSSSYLAWYQQKPGQAPRLLIYGASSRATGVPARFSGSGSGTDFTLTISSLEPEDFATYYCLQIYNMPITFGQGTKVEIK", "EC50": 0.2}
{"binder": "mAb 651 (antibody, V domains shown, glycosylation site in heavy chain CDR2 (NAT); Fab glycosylation (CE-SDS) 100 %, Variant of gantenerumab: heavy chain S53T, shortened heavy chain CDR3, light chain M95H (Kabat); also called 144) VH: QVELVESGGGLVQPGGSLRLSCAASGFTFSSYAMSWVRQAPGKGLEWVSAINATGTRTYYADSVKGRFTISRDNSKNTLYLQMNSLRAEDTAVYYCARGKGSSGYVRYFDVWGQGTLVTVSS VL: DIVLTQSPATLSLSPGERATLSCRASQSVSSSYLAWYQQKPGQAPRLLIYGASSRATGVPARFSGSGSGTDFTLTISSLEPEDFATYYCLQIYNHPITFGQGTKVEIK", "EC50": 4}
{"binder": "mAb 638 (antibody, V domains shown, no Fab glycosylation (CE-SDS 0 %), Variant of gantenerumab: heavy chain N52Q, shortened heavy chain CDR3, light chain M95H (Kabat)) VH: QVELVESGGGLVQPGGSLRLSCAASGFTFSSYAMSWVRQAPGKGLEWVSAIQASGTRTYYADSVKGRFTISRDNSKNTLYLQMNSLRAEDTAVYYCARGKGSSGYVRYFDVWGQGTLVTVSS VL: DIVLTQSPATLSLSPGERATLSCRASQSVSSSYLAWYQQKPGQAPRLLIYGASSRATGVPARFSGSGSGTDFTLTISSLEPEDFATYYCLQIYNHPITFGQGTKVEIK", "EC50": 0.2}
{"binder": "mAb 663 (antibody, V domains shown, no Fab glycosylation (CE-SDS 0 %), Variant of gantenerumab: heavy chain N52Q (Kabat) and shortened heavy chain CDR3, wild-type light chain; also called 143; gantenerumab VH QAS variant with wild-type light chain) VH: QVELVESGGGLVQPGGSLRLSCAASGFTFSSYAMSWVRQAPGKGLEWVSAIQASGTRTYYADSVKGRFTISRDNSKNTLYLQMNSLRAEDTAVYYCARGKGSSGYVRYFDVWGQGTLVTVSS VL: DIVLTQSPATLSLSPGERATLSCRASQSVSSSYLAWYQQKPGQAPRLLIYGASSRATGVPARFSGSGSGTDFTLTISSLEPEDFATYYCLQIYNMPITFGQGTKVEIK", "EC50": 0.2}
